In the supplement of paper PMC11136658:

Tested on: peptide library, one residue held at a place counted from the Y acceptor
Experiment: relative phosphorylation of the sub-library (ratio to the mean residue at this position); higher = residue favoured
Summary of the method: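 Within 384-well plates, purified recombinant kinases phosphorylated biotinylated Tyr-centred peptide library mixtures over 90 min using 50 μM ATP spiked with γ-32P-ATP; each mixture fixed one residue at one position from −5 to +5. Streptavidin membrane capture, rinsing, phosphorimaging and ImageQuant gave the intensities. These were normalized per position to the sum of the 18 randomized residues (16 for the Ser/Thr-free library) and multiplied by that number.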

Chain of ALK, construct: aa1058-end, human (Q9UM73 1058-1620, looked up): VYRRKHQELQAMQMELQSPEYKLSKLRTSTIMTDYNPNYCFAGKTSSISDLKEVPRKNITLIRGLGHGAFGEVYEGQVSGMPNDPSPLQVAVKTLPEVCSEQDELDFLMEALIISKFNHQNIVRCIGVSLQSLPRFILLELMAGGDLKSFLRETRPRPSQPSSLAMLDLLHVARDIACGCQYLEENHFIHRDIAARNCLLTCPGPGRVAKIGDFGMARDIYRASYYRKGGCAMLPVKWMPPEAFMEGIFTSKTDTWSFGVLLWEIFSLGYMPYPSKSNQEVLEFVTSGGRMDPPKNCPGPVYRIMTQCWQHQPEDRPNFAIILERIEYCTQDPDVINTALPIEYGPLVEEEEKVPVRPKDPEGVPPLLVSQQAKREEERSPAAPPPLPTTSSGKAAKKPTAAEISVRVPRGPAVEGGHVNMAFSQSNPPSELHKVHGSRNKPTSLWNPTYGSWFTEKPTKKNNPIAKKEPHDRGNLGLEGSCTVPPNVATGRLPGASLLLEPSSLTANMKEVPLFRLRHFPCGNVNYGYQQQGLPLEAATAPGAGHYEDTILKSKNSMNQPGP
Chain of ABL1, construct: aa27-end, human (P00519 27-1130, looked up): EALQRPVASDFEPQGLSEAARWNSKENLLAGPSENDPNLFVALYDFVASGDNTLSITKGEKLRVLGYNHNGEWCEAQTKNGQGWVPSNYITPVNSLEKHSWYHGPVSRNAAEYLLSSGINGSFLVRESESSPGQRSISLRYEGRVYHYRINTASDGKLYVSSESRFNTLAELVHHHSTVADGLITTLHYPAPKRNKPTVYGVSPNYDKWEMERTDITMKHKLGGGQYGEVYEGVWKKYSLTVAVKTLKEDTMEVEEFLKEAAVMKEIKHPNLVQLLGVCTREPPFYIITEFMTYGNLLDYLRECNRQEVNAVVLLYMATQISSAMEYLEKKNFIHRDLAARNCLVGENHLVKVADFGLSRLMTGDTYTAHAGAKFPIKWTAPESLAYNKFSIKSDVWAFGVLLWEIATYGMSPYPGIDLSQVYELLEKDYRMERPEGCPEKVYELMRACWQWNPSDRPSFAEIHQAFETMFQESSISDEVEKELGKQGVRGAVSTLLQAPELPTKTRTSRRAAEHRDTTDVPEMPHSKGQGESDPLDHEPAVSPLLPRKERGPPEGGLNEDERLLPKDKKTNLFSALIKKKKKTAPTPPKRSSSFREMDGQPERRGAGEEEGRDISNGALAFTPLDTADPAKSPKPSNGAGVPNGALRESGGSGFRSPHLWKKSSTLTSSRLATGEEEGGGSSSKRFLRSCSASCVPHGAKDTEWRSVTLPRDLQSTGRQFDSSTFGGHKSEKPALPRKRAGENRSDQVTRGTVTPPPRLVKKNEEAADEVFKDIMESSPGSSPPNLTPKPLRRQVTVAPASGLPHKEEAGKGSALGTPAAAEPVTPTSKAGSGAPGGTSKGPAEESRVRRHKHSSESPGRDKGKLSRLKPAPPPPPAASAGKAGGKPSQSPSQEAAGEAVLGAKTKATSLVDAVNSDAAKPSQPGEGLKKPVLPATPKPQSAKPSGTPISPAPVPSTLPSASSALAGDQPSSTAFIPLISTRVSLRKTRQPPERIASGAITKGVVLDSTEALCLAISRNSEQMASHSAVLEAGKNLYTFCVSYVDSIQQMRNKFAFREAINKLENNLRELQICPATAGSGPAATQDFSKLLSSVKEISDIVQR
Chain of ABL2, construct: aa38-end, human (P42684 38-1182, looked up): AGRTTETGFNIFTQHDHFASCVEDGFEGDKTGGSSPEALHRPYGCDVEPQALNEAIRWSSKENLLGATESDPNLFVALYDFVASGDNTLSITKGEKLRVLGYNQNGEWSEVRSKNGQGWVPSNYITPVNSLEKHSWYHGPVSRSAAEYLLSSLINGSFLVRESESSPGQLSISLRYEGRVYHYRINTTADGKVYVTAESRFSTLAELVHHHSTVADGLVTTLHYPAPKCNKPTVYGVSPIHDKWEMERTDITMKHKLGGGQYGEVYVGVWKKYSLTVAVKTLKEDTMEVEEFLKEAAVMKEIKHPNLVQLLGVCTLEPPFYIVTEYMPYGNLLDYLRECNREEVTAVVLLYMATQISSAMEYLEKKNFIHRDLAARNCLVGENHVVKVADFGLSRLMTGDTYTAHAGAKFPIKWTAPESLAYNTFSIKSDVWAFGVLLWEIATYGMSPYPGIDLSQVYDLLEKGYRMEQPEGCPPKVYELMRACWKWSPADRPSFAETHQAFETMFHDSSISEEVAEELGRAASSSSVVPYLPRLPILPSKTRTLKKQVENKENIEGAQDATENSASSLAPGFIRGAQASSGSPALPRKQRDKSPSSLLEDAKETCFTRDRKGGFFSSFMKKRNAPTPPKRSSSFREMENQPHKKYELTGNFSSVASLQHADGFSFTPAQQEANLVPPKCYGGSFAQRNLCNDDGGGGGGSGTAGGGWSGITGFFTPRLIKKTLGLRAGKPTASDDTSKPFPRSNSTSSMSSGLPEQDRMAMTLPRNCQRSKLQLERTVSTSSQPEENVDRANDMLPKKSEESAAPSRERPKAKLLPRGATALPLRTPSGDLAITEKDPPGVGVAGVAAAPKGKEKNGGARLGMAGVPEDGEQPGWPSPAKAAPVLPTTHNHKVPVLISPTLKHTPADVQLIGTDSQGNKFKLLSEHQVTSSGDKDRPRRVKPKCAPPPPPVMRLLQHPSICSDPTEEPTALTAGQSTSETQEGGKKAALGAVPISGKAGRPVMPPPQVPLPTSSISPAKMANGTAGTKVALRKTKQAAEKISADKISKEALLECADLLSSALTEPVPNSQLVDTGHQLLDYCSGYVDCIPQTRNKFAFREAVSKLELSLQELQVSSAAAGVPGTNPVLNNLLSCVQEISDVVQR

ABL1, construct: aa27-end, human (from UniProt P00519)
relative phosphorylation
Conditions	at +1	at +2	at +3	at +4	at +5	at -1	at -2	at -3	at -4	at -5
A fixed	3.14	1.24	0.892	0.948	1.12	0.702	1.12	1.02	1.24	1.16
D fixed	0.625	0.513	0.23	0.579	0.651	0.886	0.85	1.21	1.2	1.03
E fixed	0.874	0.93	0.159	0.615	0.611	1.2	1.24	1.91	1.52	0.963
F fixed	0.86	0.975	1.28	1.16	0.705	0.795	0.615	0.796	0.702	0.817
G fixed	1.36	0.628	1.36	1.34	1.27	0.502	1.27	1.16	1.36	1.24
H fixed	1.17	0.749	0.814	1.17	1.1	1.63	0.935	0.919	0.893	1.07
I fixed	0.406	1.05	1.14	0.772	0.681	3.33	0.883	0.491	0.797	0.806
K fixed	0.586	0.815	0.403	1.17	1.17	0.402	0.87	0.79	0.874	1.08
L fixed	0.815	0.961	1.49	0.918	0.987	1.54	1.01	0.885	0.985	0.936
M fixed	1.15	0.954	0.883	1.19	1.09	1.06	0.779	0.928	0.884	0.965
N fixed	0.45	1.01	0.619	0.897	0.922	0.549	0.96	1.18	0.903	1.09
P fixed	0.184	1.02	2.74	0.832	1.38	0.541	1.29	1.14	1.22	1.2
Q fixed	1.13	0.901	0.419	1.09	0.947	0.745	1.08	0.973	1.18	1.07
R fixed	0.969	1.22	0.633	1.36	1.36	0.406	0.825	0.813	0.953	1.19
S fixed	1.16	1.32	1.17	1.01	1.06	0.472	1.12	1.06	0.86	1.01
T fixed	0.843	1.37	1.28	0.939	1.19	0.908	1.19	1.05	0.796	0.97
V fixed	1.03	1.39	1.04	0.925	0.996	1.81	1.4	0.873	1.01	0.873
W fixed	1.26	0.958	1.44	1.08	0.743	0.516	0.567	0.799	0.622	0.509
pThr fixed	0.766	0.921	0.395	0.391	0.458	0.785	0.973	1.51	1.11	0.913
pTyr fixed	1.47	1.77	0.465	0.55	0.607	3.35	1.39	2.36	1.66	1.18

ABL2, construct: aa38-end, human (from UniProt P42684)
relative phosphorylation
Conditions	at +1	at +2	at +3	at +4	at +5	at -1	at -2	at -3	at -4	at -5
A fixed	2.85	1.32	0.871	0.935	1.01	0.717	1.18	1.04	1.16	1.1
D fixed	0.701	0.534	0.245	0.662	0.681	1.01	1.01	1.23	1.32	1.07
E fixed	0.884	1.2	0.199	0.735	0.686	1.45	1.38	1.88	1.69	1.13
F fixed	1.07	0.802	1.21	1.18	0.822	0.756	0.548	0.786	0.675	0.828
G fixed	1.26	0.647	1.23	1.2	1.27	0.49	1.24	1.15	1.33	1.29
H fixed	1.06	0.833	0.868	1.13	1.02	1.62	0.933	1.02	0.859	1.12
I fixed	0.517	0.843	1.46	0.736	0.781	2.9	0.867	0.598	0.774	0.716
K fixed	0.636	0.836	0.439	1.2	1.15	0.425	0.846	0.785	0.926	1.01
L fixed	0.857	0.904	1.47	0.813	0.85	1.55	0.885	0.758	0.87	0.831
M fixed	1.18	0.923	0.861	1.04	1.05	1.05	0.742	0.852	0.907	0.909
N fixed	0.492	1.06	0.756	0.988	1.02	0.674	1.11	1.25	0.871	1.27
P fixed	0.161	1.14	2.59	0.968	1.57	0.556	1.36	1.26	1.34	1.24
Q fixed	1.33	0.97	0.472	1.14	0.969	0.856	1.21	0.957	1.21	1.08
R fixed	1.03	1.27	0.684	1.43	1.4	0.451	0.896	0.883	1.07	1.18
S fixed	1.16	1.24	1.18	0.997	1.13	0.495	1.18	1.12	0.812	0.966
T fixed	0.802	1.42	1.09	0.919	1.11	1.03	1.05	1.11	0.74	0.923
V fixed	0.938	1.33	0.988	0.872	0.79	1.54	1.13	0.771	0.828	0.84
W fixed	1.05	0.737	1.39	1.04	0.69	0.421	0.422	0.552	0.623	0.506
pThr fixed	0.853	1.01	0.2	0.405	0.454	0.971	1.03	1.36	1.07	1.06
pTyr fixed	1.61	1.79	0.391	0.696	0.52	3.96	1.26	1.9	1.49	1.26

ALK, construct: aa1058-end, human (from UniProt Q9UM73)
relative phosphorylation
Conditions	at +1	at +2	at +3	at +4	at +5	at -1	at -2	at -3	at -4	at -5
A fixed	1.39	0.79	0.525	0.758	0.82	0.976	1.09	0.931	1.23	1.06
D fixed	0.468	0.286	0.207	0.721	0.44	1.42	0.92	1.09	1.01	1.01
E fixed	1.42	0.713	0.206	0.871	0.407	0.955	1.02	1.42	1.22	0.887
F fixed	1.04	1.16	1.55	1.34	2.19	1.08	0.732	1.05	1.02	1
G fixed	0.495	0.403	0.445	0.805	0.774	0.349	1.06	1.06	1.27	1.15
H fixed	1.15	0.762	1.14	1.17	0.806	1.02	1.18	0.992	0.88	0.985
I fixed	1.59	1.17	3.08	0.994	1.43	2.22	1.08	0.683	0.817	0.925
K fixed	0.398	0.982	0.401	0.984	0.661	0.353	0.998	1.04	0.956	1.15
L fixed	1.24	1.44	1.22	0.906	1.55	1.64	0.915	0.81	0.954	0.983
M fixed	2.11	1.42	1.78	1.16	1.38	0.903	0.871	0.901	0.918	0.977
N fixed	0.472	0.837	0.496	0.855	0.697	1.31	0.952	1.2	0.882	1.09
P fixed	0.296	0.934	0.476	0.939	1.54	1.06	1.11	1.1	1.29	1.21
Q fixed	1.15	0.852	0.414	1.11	0.601	0.669	1.04	0.908	1.09	0.946
R fixed	0.528	1.46	0.667	1.31	0.879	0.346	1.19	1.19	1.31	1.21
S fixed	0.929	0.776	0.526	0.873	0.706	0.64	1.13	1.05	0.776	0.857
T fixed	0.947	0.682	0.854	0.842	0.974	0.91	1.06	0.983	0.644	0.76
V fixed	1.43	1.06	2.3	0.998	0.968	1.53	0.929	0.733	0.803	0.819
W fixed	0.939	2.26	1.72	1.36	1.18	0.613	0.72	0.865	0.927	0.963
pThr fixed	1.14	0.414	0.169	0.406	0.326	0.79	0.836	0.834	0.909	0.952
pTyr fixed	1.35	1.01	0.343	1.03	0.309	3.63	1.06	1.14	1.17	1.06
